The results in this text go back to the Human Domainome abundance scans (Beltran et al. 2025).

± gives the uncertainty stated by the source.

B1: Storkhead-box protein 2, residues 64 to 141; numbered along this chain, Q9P2F5 (parent)
chain: SPISQSQFIPLGEILCLAISAMNSARKPVTQEALMEHLTTCFPGVPTPSQEILRHTLNTLVRERKIYPTPDGYFIVTP

In this data set the parent is B1. As to the kind of experiment: abundance fitness (aPCA) (normalised: wild type 0, dead -1); higher = more abundant; growth selection in yeast, the domain comes from the species named. The note with it: Homo sapiens.
Take N23M: the abundance fitness is -0.211 ± 0.072.
Consider I52D, for which the abundance fitness was -0.043 ± 0.11.
I52N: the abundance fitness is -0.46 ± 0.17.
I52K: the abundance fitness was -0.029 ± 0.072.
Take I52F: the abundance fitness worked out at 0.011 ± 0.088.
In the case of I52Y, the abundance fitness was determined as 0.171 ± 0.27.
In the case of P28A, the abundance fitness was -0.016 ± 0.058.
On to P28Y, for which the abundance fitness is -0.032 ± 0.098.
Regarding D71M, the abundance fitness was -0.054 ± 0.083.
Consider D71E, for which the abundance fitness is -0.005 ± 0.069.
As for K65T, the abundance fitness was -0.03 ± 0.063.
K65C: the abundance fitness is -0.208 ± 0.072.
Take K65E: the abundance fitness is -0.167 ± 0.079.
For the variant K65Q, the abundance fitness is 0.078 ± 0.067.
Under P10H stands -0.101 ± 0.099; under P10E, -0.043 ± 0.072; under P10D, -0.135 ± 0.21.
Under P10K stands 0.016 ± 0.11; under P10V, 0.171 ± 0.063.
Take P10Y: the abundance fitness came out at 0.003 ± 0.23.
The value for A21S was 0.062 ± 0.052; that for A21L was -0.305 ± 0.051.
The value for A21I was -0.24 ± 0.18; that for A21W was -0.244 ± 0.091.
I9T: the abundance fitness was found to be 0.007 ± 0.06.
The value for C16N was -0.08 ± 0.13; that for C16W was -0.052 ± 0.076.
With C16T, the abundance fitness is -0.027 ± 0.097.
Under C16P stands -0.124 ± 0.098; under C16G, -0.249 ± 0.033.
For the variant F42M, the abundance fitness is 0.033 ± 0.2.
Consider F42R, for which the abundance fitness stood at 0.001 ± 0.1.
Consider P70W, for which the abundance fitness was -0.141 ± 0.047.
Under P70C stands -0.051 ± 0.071.
Regarding P70S, the abundance fitness is 0.016 ± 0.037.
Under P70I stands 0.021 ± 0.11; under P70A, 0.023 ± 0.045.
Turning to S6G, the abundance fitness was -0.041 ± 0.032.
For the variant S6D, the abundance fitness worked out at 0.027 ± 0.069.
Turning to S6R, the abundance fitness is -0.062 ± 0.034.
Take S6E: the abundance fitness is -0.046 ± 0.061.
With S6H, the abundance fitness is -0.334 ± 0.26.
On to S6V, for which the abundance fitness is -0.171 ± 0.035.
With T47G, the abundance fitness is -0.197 ± 0.026.
For T47L, the abundance fitness is -0.073 ± 0.032.
With P48D, the abundance fitness was -0.398 ± 0.055.
For P48Y, the abundance fitness is -0.201 ± 0.06.
Regarding P48S, the abundance fitness is -0.418 ± 0.039.
Consider P48E, for which the abundance fitness is -0.447 ± 0.069.
For the variant P48Q, the abundance fitness was -0.156 ± 0.071.
Take Q31I: the abundance fitness is -0.074 ± 0.091.
In the case of Q31V, the abundance fitness was -0.027 ± 0.037.
Q31C: the abundance fitness came out at 0.056 ± 0.062.
As to Q31N, the abundance fitness worked out at 0.004 ± 0.09.
As for Q31M, the abundance fitness is -0.049 ± 0.054.
As for I66M, the abundance fitness is -0.249 ± 0.077.
Regarding I66D, the abundance fitness was -1.02 ± 0.27.
As for I66G, the abundance fitness was -0.894 ± 0.074.
The value for C41Q was -0.292 ± 0.16.
The value for C41M was 0.032 ± 0.091; that for C41R was -0.05 ± 0.047; that for C41V was -0.056 ± 0.035.
Under C41K stands -0.11 ± 0.082; under S49M, -0.68 ± 0.1.
For the variant S49C, the abundance fitness is -0.068 ± 0.053.
In the case of H37W, the abundance fitness is -0.27 ± 0.049.
Consider H37N, for which the abundance fitness is -0.092 ± 0.11.
Regarding H37E, the abundance fitness is -0.104 ± 0.061.
In the case of L57H, the abundance fitness was -1.1 ± 0.21.
Take L57K: the abundance fitness is -0.953 ± 0.28.
Under L57A stands -0.576 ± 0.058; under L57F, -0.306 ± 0.18.
Q50K: the abundance fitness is -0.014 ± 0.097.
With Q50W, the abundance fitness is -0.082 ± 0.067.
For Q50T, the abundance fitness is -0.08 ± 0.086.
With Q50R, the abundance fitness was -0.036 ± 0.043.
With Q50S, the abundance fitness is -0.034 ± 0.069.
With T69E, the abundance fitness is -0.095 ± 0.041.
The value for T69W was -0.362 ± 0.065; that for T69L was -0.195 ± 0.042.
With S4F, the abundance fitness was -0.151 ± 0.052.
Under S4W stands -0.161 ± 0.061.
Y67L: the abundance fitness is -0.029 ± 0.042.
The value for Y67M was 0.102 ± 0.061.
As to Y67S, the abundance fitness came to 0.001 ± 0.043.
The value for A18I was -0.308 ± 0.16.
Under A18W stands -0.496 ± 0.062; under A18G, -0.095 ± 0.048.
As to A18H, the abundance fitness is -0.125 ± 0.16.
As to A18V, the abundance fitness was -0.163 ± 0.062.
The value for A18D was -1.1 ± 0.38; that for A18E was -0.102 ± 0.081; that for A18F was -0.446 ± 0.098.
Take M35R: the abundance fitness was -0.103 ± 0.054.
M35T: the abundance fitness was -0.024 ± 0.08.
On to M35Y, for which the abundance fitness was -0.164 ± 0.14.
Take M35D: the abundance fitness is -0.191 ± 0.22.
Turning to M35A, the abundance fitness amounted to 0.02 ± 0.071.
Regarding M35C, the abundance fitness was -0.038 ± 0.091.
The value for V29G was -0.417 ± 0.033.
As to V29H, the abundance fitness is -0.496 ± 0.11.
The value for V29R was -0.792 ± 0.048; that for V29D was -0.928 ± 0.16.
For the variant I3Y, the abundance fitness was -0.158 ± 0.088.
Turning to I3A, the abundance fitness was -0.075 ± 0.039.
For I3S, the abundance fitness is 0.004 ± 0.038.
Take T40N: the abundance fitness is -0.133 ± 0.17.
For the variant T40I, the abundance fitness is -0.066 ± 0.073.
Take T40M: the abundance fitness was -0.104 ± 0.13.
On to T40C, for which the abundance fitness is 0.002 ± 0.078.
In the case of L53V, the abundance fitness is -0.003 ± 0.047.
As to L53C, the abundance fitness was -0.113 ± 0.14.
Consider L53R, for which the abundance fitness was -0.913 ± 0.092.
The value for L53F was -0.113 ± 0.12.
Take L53P: the abundance fitness was -1.11 ± 0.19.
The value for L53D was -0.747 ± 0.4.
For the variant L53Q, the abundance fitness is -0.491 ± 0.11.
With L53G, the abundance fitness was -0.856 ± 0.068.
In the case of T39V, the abundance fitness worked out at 0.098 ± 0.057.
As for T39C, the abundance fitness is -0.038 ± 0.058.
With T39D, the abundance fitness came to 0.09 ± 0.11.
The value for T39K was -0.15 ± 0.13; that for T39W was -0.003 ± 0.064; that for A33N was 0.1 ± 0.14.
The value for A33I was -0.274 ± 0.087; that for A33T was -0.118 ± 0.062; that for A33P was -0.339 ± 0.043.
On to R54Q, for which the abundance fitness was determined as 0.066 ± 0.082.
Regarding R54P, the abundance fitness is -0.401 ± 0.11.
For R54S, the abundance fitness was 0.015 ± 0.06.
Consider R54D, for which the abundance fitness is -0.365 ± 0.2.
The value for R54I was -0.037 ± 0.19; that for R54E was 0.013 ± 0.15.
Consider L15S, for which the abundance fitness was -0.235 ± 0.042.
The value for L15P was -0.983 ± 0.098; that for L15Y was -0.252 ± 0.11.
As to L15E, the abundance fitness is -0.67 ± 0.12.
In the case of L15R, the abundance fitness is -0.977 ± 0.079.
Take L15T: the abundance fitness came out at 0.059 ± 0.048.
With L15Q, the abundance fitness was -1.03 ± 0.15.
In the case of H55Y, the abundance fitness is -0.181 ± 0.11.
For H55C, the abundance fitness was -0.033 ± 0.058.
Consider H55P, for which the abundance fitness was -0.223 ± 0.051.
H55W: the abundance fitness is -0.087 ± 0.091.
The value for H55D was 0.07 ± 0.074.
Regarding H55K, the abundance fitness is 0.007 ± 0.07.
For H55T, the abundance fitness was determined as 0.065 ± 0.051.
As for S24W, the abundance fitness is -0.226 ± 0.045.
For S24D, the abundance fitness is -0.018 ± 0.14.
On to G72W, for which the abundance fitness was -0.662 ± 0.072.
Take G72V: the abundance fitness was -0.568 ± 0.051.
The value for G72E was -0.078 ± 0.074; that for G72L was -0.461 ± 0.048.
Consider G72Q, for which the abundance fitness was -0.034 ± 0.05.
The value for G72D was -0.033 ± 0.11; that for K27P was -0.689 ± 0.084; that for R26A was -0.021 ± 0.048.
For the variant R26E, the abundance fitness was -0.016 ± 0.092.
For the variant R26H, the abundance fitness was -0.09 ± 0.09.
As for R26V, the abundance fitness was -0.09 ± 0.042.
The value for R26F was -0.089 ± 0.049; that for R26M was -0.124 ± 0.12.
With R26P, the abundance fitness was -0.195 ± 0.059.
As to V61Q, the abundance fitness is -0.013 ± 0.095.
On to V61T, for which the abundance fitness stood at 0.019 ± 0.071.
For V61C, the abundance fitness was found to be 0.04 ± 0.078.
Take V61E: the abundance fitness is -0.028 ± 0.062.
